Assay results: patent US20050208103A1, “Targeted transscleral controlled release drug delivery to the retina and choroid” (priority 1999, published 2005)

Key:
[1] = assay type: in vitro ADME, rabbit; details: not told
Procedure: Dutch-belted rabbits (Pine Acres Rabbitry, Vermont, Mass.), each weighing 2-3 kg, were anesthetized with intramuscular 40 mg/kg ketamine (Abbott, N. Chicago, Ill.) and 10 mg/kg xylazine (Bayer, Shawnee Mission, Kans.). Scleral thickness was measured using a RK-5000 ultrasound pachymeter (KMI Surgical Products, West Chester, Pa.). The eyes were enucleated immediately […] sacrifice and immersed in Unisol (Alcon, Ft. Worth, Tex.) for 10 minutes or less. The adherent muscles were excised and episcleral tissue was removed with a sterile gauze sponge. Areas free of nerve and vessel emissaries were used to obtain 7×12 mm slices of sclera under microscopic caliper guidance. Each piece of sclera was used on the day of isolation.
A 5×10 mm window, 2 mm from the bottom, was created on one face of a spectrophotometry polystyrene cuvette (Sigma, St. Louis, Mo.) using a Bridgeport vertical milling machine (Bridgeport, Bridgeport, Conn.), and a piece of sclera was blotted dry and placed over this window without stretching so as not to induce asymmetric stresses. A small amount of cyanoacrylate tissue adhesive (Ellman International, Hewlett, N.Y.) was applied to the entire boundary of the tissue rim to seal its cut surface to the cuvette and prevent leakage around the sclera, and a second identical cuvette was aligned with the first cuvette and glued in place over the tissue. After the glue polymerized, within 3 to 4 minutes, the cuvette facing the “orbital” surface of the sclera was filled with Unisol. The apparatus was discarded if leakage into the “uveal” chamber was observed. Unisol was replaced with diffusion medium (see below) and the apparatus was incubated at 37° C. in 5% CO2 atmosphere for 1 hour to restore normal hydration and temperature.
Hanks' balanced salt solution without phenol red, containing 1% glutamine-penicillin and streptomycin, tetracycline (48 μg/ml), and aprotinin (1.5 μg/ml) (all from Sigma), was used as the diffusion medium. Tetracycline and aprotinin were excluded from the medium for certain experiments with FITC-BSA to evaluate the effect of these proteolysis inhibitors on scleral permeability. The pH of all solutions ranged from 7.41 to 7.45.
Fluorescein isothiocyanate (FITC) conjugated dextrans ranging in molecular weight from 4 kDa to 150 kDa, FITC-bovine serum albumin (BSA), FITC-rabbit IgG (all from Sigma), rhodamine-conjugated dextran of molecular weight 70 kDa (Molecular Probes, Eugene, Oreg.), and sodium fluorescein (Akorn, Abita Springs, La.) were studied. At least 5 experiments were performed on each compound. […] Samples were protected from light at all times before fluorescence measurements. […]

[2] = Stokes-Einstein radius; cited from earlier work
[3] = Protein precipitation with trichloroacetic acid to test FITC linkage; parameters: species or system rabbit; details: supernatant fluorescence

Compound | Permeability coefficient [1] | Permeability coefficient (mean ± sd) [1] | Molecular radius [2] [nm] | dissociation of the FITC conjugate after diffusion through sclera [3]
O=C([O-])c1ccccc1-c1c2ccc(=O)cc-2oc2cc([O-])ccc12.[Na+].[Na+] [Sodium fluorescein, sodium fluorescein] | 76.3±24.1 ×10^−6 cm/s | 84.5±16.1 ×10^−6 cm/s | 0.5 | –
FITC-BSA: Fluorescein isothiocyanate conjugated bovine serum albumin (Sigma) | 5.21±1.85 ×10^−6 cm/s | 5.49±2.12 ×10^−6 cm/s | 3.62 | no significant dissociation
